This note sets out measurements from patent US20190233528A1 (published 2019).

First the molecules themselves.
T1: recombinant human CD70 (AviTag, polyhistidine tag and chicken tenascin trimerization domain fused to the … (chicken; human, UniProt P10039 110-139, limits assumed)
T1 construct: domain: trimerization domain; Expressed in Expi293, purified by IMAC and SEC; Copies 3 is inferred from the trimerization domain; not shown: AviTag; polyhistidine tag
T1 sequence: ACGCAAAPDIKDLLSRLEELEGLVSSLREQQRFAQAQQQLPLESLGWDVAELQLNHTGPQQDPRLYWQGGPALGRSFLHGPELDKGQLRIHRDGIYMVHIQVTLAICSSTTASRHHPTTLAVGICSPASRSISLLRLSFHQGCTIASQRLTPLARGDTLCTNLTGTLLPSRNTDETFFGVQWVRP

B1: P08A02 anti-CD70 scFv-Fc fusion (Fc fusion)
chain: EVQLVQSGAEVKKPGESLKISCKGSGYTFTNYWIAWVRQMPGKGLEWMGIIYPDGSDTRYSPSFQGQVTISADKSISTAYLQWSSLKASDTAMYYCARDITSWYYGEPAFDIWGQGTLVTVSSGGGGSGGGGSGGGGSGGGGSELQSVLTQPPSASGTPGQRVTISCSGSSSNIGSNYVYWYQQLPGTAPKLLIYRNNQRPSGVPDRFSGSKSGTSASLAISGLRSEDEADYYCATWDDSLGSPVFGTGTKLTVL
notes: scFv-Fc expressed in Expi293; not shown: part of the hinge and Fc from a modified human IgG2
B2: P02B10 anti-CD70 scFv-Fc fusion (Fc fusion)
chain: EVQLLESGGGLVQPGGSLRLSCAASGFAFSNYAMSWVRQAPGKGLEWVSAIRGGGGSTYYADSVKGRFTISRDNSKNTLYLQMNSLRAEDTAVYYCARDFISGTWYPDYWGQGTLVTVSSGGGGSGGGGSGGGGSGGGGSELQSVLTQPPSASGTPGQRVTISCSGSSSNIGSNYVYWYQQLPGTAPKLLIYRNNQRPSGVPDRFSGSKSGTSASLAISGLRSEDEADYYCAAWDDSLSGVVFGGGTKLTVL
notes: as for B1
B3: P07D03 anti-CD70 scFv-Fc fusion (Fc fusion)
chain: EVQLVQSGAEVKKPGESLKISCKGSGYRFTSYWIGWVRQMPGKGLEWMGSIYPDDSDTRYSPSFQGQVTISADKSISTAYLQWSSLKASDTAMYYCASSTVDYPGYSYFDYWGQGTLVTVSSGGGGSGGGGSGGGGSGGGGSELQSVLTQPPSASGTPGQRVTISCSGSRSNIGSNYVYWYQQLPGTAPKLLIYRNNQRPSGVPDRFSGSKSGTSASLAISGLRSEDEADYYCASWDGSLSAVVFGTGTKLTVL
notes: as for B1

For the test, the target named is T1, recombinant human CD70 (AviTag, …). Kind of test: SPR (Biacore 8K, 37 C): CD70 captured via anti-AviTag antibody on C1 chip, scFv-Fc as analyte; 1:1 steady state affinity fit (SS KD). How it is done: The antibody binding kinetics were determined by surface plasmon resonance (Biacore 8K, GE Healthcare Bio-Sciences, Pittsburgh Pa.) at 37° C. in HBS-T+ (0.01 M HEPES pH 7.4, 0.15 M NaCl, 0.05% v/v Tween20, 1 mg/mL BSA). Recombinant human CD70 diluted in HBS-T+ was captured on a C1 chip immobilized with an anti-AviTag™ antibody. Purified anti-CD70 scFv-Fc fusions were serially diluted into HBS-T+, injected at 30 uL/min for 2-4 min, dissociation monitored for 10 min then the surface regenerated with 75 mM phosphoric acid between injections. Buffer cycles were collected for each anti-CD70 scFv-Fc fusion for double-referencing purposes (double-referencing as described in Myszka, D. G. Improving biosensor analysis. J. Mol. Recognit. 12, 279-284 (1999)). Kinetic association rates (kₒₙ) and dissociation rates (koff) were obtained simultaneously by fitting the double-referenced sensorgrams globally to a 1:1 Langmuir with mass transport model using Biacore 8K Evaluation Software (GE Healthcare Bio-Sciences, Pittsburgh Pa.) then used to calculate an equilibrium dissociation constant (KD) from the kinetic rate constants (KD=koff/kₒₙ). The data was fit to a 1:1 steady state affinity model using Biacore 8K Evaluation Software to determine a steady state equilibrium dissociation constant (SS KD) as needed.
Take B1: the Kd was found to be 1200 nM. The same measure for B2: 355 nM; for B3: 1070 nM.

In general, Kd refers to a measure of binding affinity in units of concentration.
